US20230002480A1

Tests used:
Test in all cases: cell-based or functional assay
[1] = biological target: HIV-1 Env of pseudovirus SC422661.8 (HIV-1)
[2] = biological target: HIV-1 Env of pseudovirus THRO4156.18 (HIV-1)
[3] = biological target: HIV-1 Env of pseudovirus ZM109F.PB4 (HIV-1)
[4] = biological target: HIV-1 Env of pseudovirus Ce0682_E4 (HIV-1)
[5] = biological target: HIV-1 Env of pseudovirus CAP45.2.00.G3 (HIV-1)
[6] = biological target: HIV-1 Env of pseudovirus Q842.d12 (HIV-1)
[7] = biological target: HIV-1 Env of pseudovirus 62357_14_D3_4589 (HIV-1)
[8] = biological target: HIV-1 Env of pseudovirus 1394C9G1(Rev-) (HIV-1)
[9] = biological target: HIV-1 Env of pseudovirus Ce2010_F5 (HIV-1)
[10] = biological target: HIV-1 Env of pseudovirus 6244_13_B5_4576 (HIV-1)
[11] = biological target: HIV-1 Env of pseudovirus Du422.1 (HIV-1)
[12] = biological target: HIV-1 Env of pseudovirus Du172.17 (HIV-1)
[13] = biological target: HIV-1 Env of pseudovirus ZM214M.PL15 (HIV-1)
[14] = biological target: HIV-1 Env of pseudovirus CNE58 (HIV-1)
[15] = biological target: HIV-1 Env of pseudovirus CNE30 (HIV-1)
[16] = biological target: HIV-1 Env of pseudovirus 246F C1G (HIV-1)
[17] = biological target: HIV-1 Env of pseudovirus CNE20 (HIV-1)
[18] = biological target: HIV-1 Env of pseudovirus 1054_07_TC4_1499 (HIV-1)
[19] = biological target: HIV-1 Env of pseudovirus Du156.12 (HIV-1)
[20] = biological target: HIV-1 Env of pseudovirus T257-31 (HIV-1)
[21] = biological target: HIV-1 Env of pseudovirus 0260.v5.c36 (HIV-1)
[22] = biological target: HIV-1 Env of pseudovirus 191955_A11 (HIV-1)

N49P19 (antibody) showed an IC50 [1] of 0.425 µg/mL, an IC80 [1] of 1.42 µg/mL and an MPI [1] of 100. For the same substance, the IC50 [2] was 17.1 µg/mL, the IC80 [2] was over 50 µg/mL and the MPI [2] was 69. It also gave an IC50 [3] of 0.282 µg/mL, an IC80 [3] of 2.66 µg/mL and an MPI [3] of 92. For the same substance, the IC50 [4] was 0.607 µg/mL, the IC80 [4] was 2.32 µg/mL and the MPI [4] was 98. The IC50 [5] was over 50 µg/mL, the IC80 [5] was over 50 µg/mL and the MPI [5] was 5. For the same substance, the IC50 [6] was 0.182 µg/mL, the IC80 [6] was 0.601 µg/mL and the MPI [6] was 100. The IC50 [7] was 37.4 µg/mL, the IC80 [7] was over 50 µg/mL and the MPI [7] was 51. For the same substance, the IC50 [8] was over 50 µg/mL, the IC80 [8] was over 50 µg/mL and the MPI [8] was 17. The IC50 [9] was 7.66 µg/mL, the IC80 [9] was 45.4 µg/mL and the MPI [9] was 82. It also gave an IC50 [10] of 0.571 µg/mL, an IC80 [10] of 1.82 µg/mL and an MPI [10] of 100. The IC50 [11] was over 50 µg/mL, the IC80 [11] was over 50 µg/mL and the MPI [11] was 30. The IC50 [12] was over 50 µg/mL, the IC80 [12] was over 50 µg/mL and the MPI [12] was 30. It also gave an IC50 [13] of 1.85 µg/mL, an IC80 [13] of 14.8 µg/mL and an MPI [13] of 98. The IC50 [14] was over 50 µg/mL, the IC80 [14] was over 50 µg/mL and the MPI [14] was 43. It also gave an IC50 [15] of 1.27 µg/mL, an IC80 [15] of 4.28 µg/mL and an MPI [15] of 100. For the same substance, the IC50 [16] was over 50 µg/mL, the IC80 [16] was over 50 µg/mL and the MPI [16] was 19. The IC50 [17] was 0.124 µg/mL, the IC80 [17] was 0.817 µg/mL and the MPI [17] was 99. The IC50 [18] was 2.85 µg/mL, the IC80 [18] was 11.7 µg/mL and the MPI [18] was 99. The IC50 [19] was 2.17 µg/mL, the IC80 [19] was 17 µg/mL and the MPI [19] was 87.
Substance PG9 (antibody) has an IC50, titer in TZM.bl cells [1] of 0.553 µg/mL, an IC80, titer in TZM.bl cells [1] of 7.05 µg/mL and an IC50, titer in TZM.bl cells [2] of 24.5 µg/mL. It also gave an IC80, titer in TZM.bl cells [2] of over 50 µg/mL, an IC50, titer in TZM.bl cells [20] of 0.037 µg/mL and an IC80, titer in TZM.bl cells [20] of 0.124 µg/mL. It also gave an IC50, titer in TZM.bl cells [3] of 0.256 µg/mL, an IC80, titer in TZM.bl cells [3] of 6.69 µg/mL and an IC50, titer in TZM.bl cells [4] of 0.196 µg/mL. It also gave an IC80, titer in TZM.bl cells [4] of 0.698 µg/mL, an IC50, titer in TZM.bl cells [5] of 0.007 µg/mL and an IC80, titer in TZM.bl cells [5] of 0.029 µg/mL. It also gave an IC50, titer in TZM.bl cells [6] of 0.023 µg/mL, an IC80, titer in TZM.bl cells [6] of 0.081 µg/mL and an IC50, titer in TZM.bl cells [7] of over 50 µg/mL. It also gave an IC80, titer in TZM.bl cells [7] of over 50 µg/mL, an IC50, titer in TZM.bl cells [8] of 0.029 µg/mL and an IC80, titer in TZM.bl cells [8] of 0.114 µg/mL. For the same substance, the IC50, titer in TZM.bl cells [21] was 1.69 µg/mL, the IC80, titer in TZM.bl cells [21] was 9 µg/mL and the IC50, titer in TZM.bl cells [9] was over 50 µg/mL. For the same substance, the IC80, titer in TZM.bl cells [9] was over 50 µg/mL, the IC50, titer in TZM.bl cells [10] was over 50 µg/mL and the IC80, titer in TZM.bl cells [10] was over 50 µg/mL. The IC50, titer in TZM.bl cells [22] was 0.053 µg/mL, the IC80, titer in TZM.bl cells [22] was 0.154 µg/mL and the IC50, titer in TZM.bl cells [11] was 0.614 µg/mL. It also gave an IC80, titer in TZM.bl cells [11] of 10.4 µg/mL, an IC50, titer in TZM.bl cells [12] of 0.606 µg/mL and an IC80, titer in TZM.bl cells [12] of 1.6 µg/mL. For the same substance, the IC50, titer in TZM.bl cells [13] was over 50 µg/mL, the IC80, titer in TZM.bl cells [13] was over 50 µg/mL and the IC50, titer in TZM.bl cells [14] was 0.038 µg/mL. The IC80, titer in TZM.bl cells [14] was 0.122 µg/mL, the IC50, titer in TZM.bl cells [15] was over 50 µg/mL and the IC80, titer in TZM.bl cells [15] was over 50 µg/mL. For the same substance, the IC50, titer in TZM.bl cells [16] was over 50 µg/mL, the IC80, titer in TZM.bl cells [16] was over 50 µg/mL and the IC50, titer in TZM.bl cells [17] was 0.052 µg/mL. It also gave an IC80, titer in TZM.bl cells [17] of 0.278 µg/mL, an IC50, titer in TZM.bl cells [18] of over 50 µg/mL and an IC80, titer in TZM.bl cells [18] of over 50 µg/mL. The IC50, titer in TZM.bl cells [19] was 0.026 µg/mL and the IC80, titer in TZM.bl cells [19] was 0.19 µg/mL.
PG16 (antibody) gave an IC50, titer in TZM.bl cells [1] of 0.858 µg/mL, an IC80, titer in TZM.bl cells [1] of over 50 µg/mL and an IC50, titer in TZM.bl cells [2] of 6.83 µg/mL. The IC80, titer in TZM.bl cells [2] was over 50 µg/mL, the IC50, titer in TZM.bl cells [20] was 0.007 µg/mL and the IC80, titer in TZM.bl cells [20] was 0.021 µg/mL. The IC50, titer in TZM.bl cells [3] was 7.03 µg/mL, the IC80, titer in TZM.bl cells [3] was over 50 µg/mL and the IC50, titer in TZM.bl cells [4] was 0.026 µg/mL. The IC80, titer in TZM.bl cells [4] was 0.202 µg/mL, the IC50, titer in TZM.bl cells [5] was 0.001 µg/mL and the IC80, titer in TZM.bl cells [5] was 0.003 µg/mL. The IC50, titer in TZM.bl cells [6] was 0.032 µg/mL, the IC80, titer in TZM.bl cells [6] was over 0.25 µg/mL and the IC50, titer in TZM.bl cells [7] was over 50 µg/mL. The IC80, titer in TZM.bl cells [7] was over 50 µg/mL, the IC50, titer in TZM.bl cells [8] was 0.008 µg/mL and the IC80, titer in TZM.bl cells [8] was 0.056 µg/mL. It also gave an IC50, titer in TZM.bl cells [21] of 1.54 µg/mL, an IC80, titer in TZM.bl cells [21] of 36.1 µg/mL and an IC50, titer in TZM.bl cells [9] of over 50 µg/mL. For the same substance, the IC80, titer in TZM.bl cells [9] was over 50 µg/mL, the IC50, titer in TZM.bl cells [10] was over 50 µg/mL and the IC80, titer in TZM.bl cells [10] was over 50 µg/mL. The IC50, titer in TZM.bl cells [22] was 0.009 µg/mL, the IC80, titer in TZM.bl cells [22] was 0.042 µg/mL and the IC50, titer in TZM.bl cells [11] was 0.261 µg/mL. For the same substance, the IC80, titer in TZM.bl cells [11] was 33.8 µg/mL, the IC50, titer in TZM.bl cells [12] was 0.033 µg/mL and the IC80, titer in TZM.bl cells [12] was 0.213 µg/mL. For the same substance, the IC50, titer in TZM.bl cells [13] was over 50 µg/mL, the IC80, titer in TZM.bl cells [13] was over 50 µg/mL and the IC50, titer in TZM.bl cells [14] was 0.044 µg/mL. The IC80, titer in TZM.bl cells [14] was 0.25 µg/mL, the IC50, titer in TZM.bl cells [15] was over 50 µg/mL and the IC80, titer in TZM.bl cells [15] was over 50 µg/mL. The IC50, titer in TZM.bl cells [16] was over 50 µg/mL, the IC80, titer in TZM.bl cells [16] was over 50 µg/mL and the IC50, titer in TZM.bl cells [17] was 3.63 µg/mL. For the same substance, the IC80, titer in TZM.bl cells [17] was 47.2 µg/mL, the IC50, titer in TZM.bl cells [18] was over 50 µg/mL and the IC80, titer in TZM.bl cells [18] was over 50 µg/mL. For the same substance, the IC50, titer in TZM.bl cells [19] was 0.006 µg/mL and the IC80, titer in TZM.bl cells [19] was 0.026 µg/mL.
